A short description of this data set: protein stability index of a GFP-peptide fusion (GPS, HEK-293T) (PSI 1-6); higher = more stable.
Where [1] appears, read: treatment: DMSO, c terminus: a fixed tail appended.
Where [2] appears, read: treatment: MLN4924 1 uM, 8 h, c terminus: a fixed tail appended.

± gives the standard deviation.

Results on 72 sequences are retold here after the supplement of paper PMC10567573.
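Further: 24-mer peptide tiles fused after GFP, lentivirally expressed, FACS-sorted into six equal bins by GFP/DsRed ratio, decoded by Illumina sequencing, PSI is the read-weighted mean bin number.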

ILDTAGQAEFTAMRDQYMRAGEGF [RIT1]: the protein stability index worked out at 3.44 ± 0.29 under setting [1] and 3.6 ± 0.23 under setting [2].
In the case of ILKQLIADVTLDPETAHPNLVLSE [TRIM39], the protein stability index came to 2.67 ± 0.085 under setting [1] and 2.81 ± 0.29 under setting [2].
Turning to ILTSQPGKEVVKQLEEGLKDTDLA [M1AP], the protein stability index came to 5.05 ± 0.28 under setting [1] and 5.17 ± 0.17 under setting [2].
Consider IPGKVIDEIYRVLRYVNSTRAPQR [FBXO28], for which the protein stability index is, setting by setting: under setting [1], 2.2 ± 0.21; under setting [2], 2.41 ± 0.28.
The corresponding values for IPQQQGMRPPMPPHGQYGGHHQGM [ZNF207] are 3.71 ± 0.24 and 3.88 ± 0.11.
Turning to IQASAGVISKKAKVKVPQKTAGKE [ZNF75A], the protein stability index under setting [1] was found to be 4.6 ± 0.16 and the protein stability index under setting [2] was 4.79 ± 0.27.
Turning to IQKAYDELRLQSEAFKKHSLDLLS [CCDC89], the protein stability index under setting [1] worked out at 2.68 ± 0.31 and the protein stability index under setting [2] amounted to 2.91 ± 0.23.
As to IRARELQNIYKCIMLKNISQDERL [IQUB], the protein stability index under setting [1] came to 2.25 ± 0.57 and the protein stability index under setting [2] is 2.15 ± 0.54.
The corresponding values for IRGPAGNNDCRIYVGNLPPDIRTK [SRSF1] are 3.43 ± 0.25 and 3.38 ± 0.27.
The corresponding values for IRNRGYNLIYRSTRHLKRLALMIQ [TMEM192] are 3.02 ± 0.16 and 2.97 ± 0.38.
As for ISLFFLIIYMGSFMLMLLVLGIQV [CDS1], the protein stability index reads like this: under setting [1], 3.18 ± 0.23; under setting [2], 3.33 ± 0.11.
With ISSIEAQLSELRSEMECQNQEYKM [KRT13], the protein stability index is, setting by setting: under setting [1], 4.76 ± 0.23; under setting [2], 4.69 ± 0.29.
Take ISVILPTVHEVDIFRCFCPVFLHS [DENND6A]: the protein stability index reads like this: under setting [1], 3.07 ± 0.19; under setting [2], 3 ± 0.56.
Regarding ITNVDLREYLSEEVQAVHKNTTYD [USP39], the protein stability index reads like this: under setting [1], 4.2 ± 0.24; under setting [2], 4.17 ± 0.19.
For the sequence ITTIGYGHAAPGTDAGKAFCMFYA [KCNK9], the protein stability index was 2.9 ± 0.49 under setting [1] and 2.8 ± 0.56 under setting [2].
As for ITYPPGVKEISDKISKEEMVRRLK [PDS5B], the protein stability index came out at 3.49 ± 0.36 under setting [1] and 3.73 ± 0.44 under setting [2].
Consider KALWEDKTSLWEEENALWEEERAF [CCDC70], for which the protein stability index under setting [1] came out at 3.79 ± 0.18 and the protein stability index under setting [2] is 3.87 ± 0.14.
KARVKPPEGYDVVAVYPNAKVELV [PDLIM4]: the protein stability index runs as follows: under setting [1], 3.02 ± 0.18; under setting [2], 3.31 ± 0.28.
KCASDIFQASNPYLPTRGGTTMAS [TRIM55] came in with a protein stability index under setting [1] of 2.89 ± 0.22 and a protein stability index under setting [2] of 2.86 ± 0.16.
Taken in the same sequence, the figures for KCGNCQTKLHDIDGVPHLILIASR [KMT5A] were 2.35 ± 0.46 and 2.51 ± 0.41.
As for KDGEYCWRWTGFNFGFDLLVTYTN [GMCL1], the protein stability index reads like this: under setting [1], 3.44 ± 0.41; under setting [2], 2.89 ± 0.46.
Turning to KDLFEEKIKKSPLTICYPEYAGSN [GNAI1], the protein stability index under setting [1] turned out to be 3.96 ± 0.36 and the protein stability index under setting [2] was found to be 4.09 ± 0.21.
For the sequence KDLNENLAATQGLAHMIAECKKLF [DLC1], the protein stability index under setting [1] worked out at 2.39 ± 0.45 and the protein stability index under setting [2] was determined as 2.3 ± 0.34.
As for KDMNFLKRYAGREEHWVGLKKEPG [CD69], the protein stability index is, setting by setting: under setting [1], 3.61 ± 0.16; under setting [2], 3.79 ± 0.21.
Turning to KDWLEGTVRGATGIFPLSFVKILK [NCF4], the protein stability index reads like this: under setting [1], 2.49 ± 0.5; under setting [2], 2.38 ± 0.52.
As to KEAGVQKLILTSSASVIFEGVDIK [NSDHL], the protein stability index amounted to 2.99 ± 0.3 under setting [1] and 2.84 ± 0.19 under setting [2].
With KEAVLAMEKKSKPKNSVWKRLKSP [RIT1], the protein stability index by setting is: under setting [1], 4.23 ± 0.21; under setting [2], 4.19 ± 0.27.
The corresponding values for KEFTLLLSAANVCLDPIIYFFLCQ [P2RY14] are 3.06 ± 0.56 and 2.97 ± 0.17.
For KEKDSPFKPKLYKGDRGLPLEGSA [RBBP5], the protein stability index worked out at 4.57 ± 0.34 under setting [1] and 4.32 ± 0.23 under setting [2].
Under setting [2], KEQDVEKELRDGGEQDTWAGEGAE [NFE2L1] displayed a protein stability index of 5.83 ± 0.073.
For the sequence KESESEAKVDGETASDSESRAESA [CDS2], the protein stability index under setting [1] was found to be 5.6 ± 0.17 and the protein stability index under setting [2] stood at 5.34 ± 0.34.
Taken in the same sequence, the figures for KETAHDLDVKSPPEPRSEVVPARL [RIPK4] were 4.8 ± 1.2 and 4.88 ± 0.86.
Take KGNPEEEDVDTSQVLYEWEQGFSQ [CTNNB1]: the protein stability index reads like this: under setting [1], 5.11 ± 0.25; under setting [2], 5.25 ± 0.28.
With KITDFQLHASTVKRYGLGAHRGRL [CPXM2], the protein stability index is, setting by setting: under setting [1], 3.133 ± 0.018; under setting [2], 3.22 ± 0.53.
Regarding KIVLCAVSHVFMLLFNVKSPTDIQ [RHOBTB3], the protein stability index reads like this: under setting [1], 3.16 ± 0.17; under setting [2], 3.09 ± 0.22.
Consider KKCVKKFVEYCDVNNDKSISVQEL [SMOC2], for which the protein stability index under setting [1] was 3.57 ± 0.21 and the protein stability index under setting [2] was 3.68 ± 0.49.
In the case of KKIRQVIRKYNYVAMDTEFPGVVA [CNOT7], the protein stability index under setting [1] was found to be 2.79 ± 0.35 and the protein stability index under setting [2] turned out to be 2.24 ± 0.28.
Taken in the same sequence, the figures for KKMSCQQFIANLDQLNDGQDFAKD [PSD2] were 4.41 ± 0.22 and 4.4 ± 0.2.
The corresponding values for KLCKKGLAATTSMAYAKLMLTVMT [FANCE] are 2.33 ± 0.52 and 2.22 ± 0.43.
KLGPALKIYEYHVKPLQTKHLKNN [SAMD13]: the protein stability index was 2.46 ± 0.14 under setting [1] and 2.54 ± 0.22 under setting [2].
In the case of KLQKEKEELERRFEDEVKRLGWQQ [MTUS2], the protein stability index came out at 4.36 ± 0.35 under setting [1] and 4.6 ± 0.32 under setting [2].
With KLSAKSLQTLRSFSHTLVSLSLFG [ZER1], the protein stability index is 3 ± 0.45 under setting [1] and 2.95 ± 0.43 under setting [2].
Take KLSPKKTWEGFIGGFFATVVFGLL [CDS2]: the protein stability index by setting is: under setting [1], 2.33 ± 0.43; under setting [2], 2.01 ± 0.28.
Consider KPTEPSVPVQPLLPESLARSLLPS [FBF1], for which the protein stability index was found to be 4.33 ± 0.11 under setting [1] and 4.43 ± 0.26 under setting [2].
For KQIKAGAYDFPSPEWDTVTPEAKD [CAMK2A], the protein stability index stood at 5.34 ± 0.26 under setting [1] and 5.27 ± 0.18 under setting [2].
The corresponding values for KQQWEIMHKHNETSQKIAARAFAQ [RSPH3] are 3.41 ± 0.2 and 3.38 ± 0.14.
Turning to KRANAAFLIGAYAVIYLKKTPEEA [CDC14A], the protein stability index by setting is: under setting [1], 2.38 ± 0.57; under setting [2], 2.21 ± 0.22.
Take KRASAPTFDNDYSLSELLSQLDSG [RIPK4]: the protein stability index by setting is: under setting [1], 3.75 ± 0.37; under setting [2], 3.56 ± 0.15.
KRKVDTGGFLSESKDCKPPVYLLL [MYBL2]: the protein stability index was 2.01 ± 0.51 under setting [1] and 2.61 ± 0.72 under setting [2].
In the case of KRLCGLKVEVDMEKIAAEIAQAEE [SMARCE1], the protein stability index stood at 2.25 ± 0.12 under setting [1] and 3.63 ± 0.37 under setting [2].
Consider KRMSELCIDFNKNLNEDDTFLVFS, for which the protein stability index by setting is: under setting [1], 2.08 ± 0.25; under setting [2], 2.58 ± 0.11.
As to KRSVYIDARDEELEKDTMDNWDEK [ZC3H15], the protein stability index amounted to 4.98 ± 0.31 under setting [1] and 4.88 ± 0.24 under setting [2].
In the case of KSKASFLLLASGLVITDFFGHLIN [PTGFR], the protein stability index by setting is: under setting [1], 3.11 ± 0.27; under setting [2], 2.88 ± 0.57.
Take KSNGRGGSQAGGSGSAGQYGSDQQ [MYOZ1]: the protein stability index is, setting by setting: under setting [1], 5.49 ± 0.23; under setting [2], 5.4 ± 0.14.
Taken in the same sequence, the figures for KSSTVGLVTLNDMKAKQEALVKER [FAM50A] were 4.69 ± 0.31 and 4.45 ± 0.39.
KTCSRVDHCAQQDHGCEQLCLNTE [MATN2] showed a protein stability index under setting [1] of 4.77 ± 0.19 and a protein stability index under setting [2] of 4.77 ± 0.21.
With KVLNMWCCCFFKRRKRKTIQRHK [CSNK1G3], the protein stability index is, setting by setting: (treatment: DMSO, c terminus: native) 2.56 ± 0.16; (treatment: MLN4924 1 uM, 8 h, c terminus: native) 2.86 ± 0.22.
Consider KVLTEPEVRYYLRQIVSGLKYLHE [PLK2], for which the protein stability index is 3.19 ± 0.29 under setting [1] and 2.42 ± 0.33 under setting [2].
Take KVVLSDAYAHPQQKVAVYRALQAA [TRADD]: the protein stability index is 2.9 ± 0.41 under setting [1] and 3.24 ± 0.25 under setting [2].
Taken in the same sequence, the figures for KWLSCGFMLEIVTPTSLSSLSNAV [FBXO33] were 3.04 ± 0.57 and 3.57 ± 0.76.
Taken in the same sequence, the figures for KYKRRRFQKTKNLLTGETEADPEM [CLPTM1] were 4.83 ± 0.28 and 4.57 ± 0.4.
For LANACLPVRTTNKISKQFVAPADV [ZSWIM9], the protein stability index amounted to 3.27 ± 0.2 under setting [1] and 3.5 ± 0.21 under setting [2].
LANGRALSAGSPPVPPGWNPNSSS [DLX1]: the protein stability index runs as follows: under setting [1], 3.93 ± 0.22; under setting [2], 4 ± 0.29.
Regarding LANNQCMATESVDHELGRCTDSVV [EHMT1], the protein stability index under setting [1] was 4.74 ± 0.093 and the protein stability index under setting [2] is 4.71 ± 0.074.
In the case of LAQFPNTLLGNPKKRMRYFDPLRN [KCNA1], the protein stability index came out at 2.45 ± 0.12 under setting [1] and 2.48 ± 0.12 under setting [2].
In the case of LAWASYDQTGKEVADRWYSEIKNY [GLIPR2], the protein stability index is 2.87 ± 0.5 under setting [1] and 3.05 ± 0.23 under setting [2].
LAWRIVNDTYRTDLCLLYPPFMIA [CCNC]: the protein stability index turned out to be 2.86 ± 0.49 under setting [1] and 3.34 ± 0.71 under setting [2].
Consider LCKATSPADALQYLLQFARKPVEA [INTS4], for which the protein stability index reads like this: under setting [1], 2.05 ± 0.28; under setting [2], 2.12 ± 0.29.
For LCKLFPFLQKSSVGITVLNLCALS [EDNRA], the protein stability index reads like this: under setting [1], 2.47 ± 0.18; under setting [2], 2.72 ± 0.57.
In turn, LDKSTKLVETAIQSLDEPGGATFL [TRIM63] yielded a protein stability index under setting [1] of 4.13 ± 0.29 and a protein stability index under setting [2] of 4.17 ± 0.28.
Regarding LDREIRLQRLSHSGSRVRVGFRLC [SCNN1D], the protein stability index amounted to 2.39 ± 0.17 under setting [1] and 2.48 ± 0.16 under setting [2].
As for LDRERAAANEQLTRAILRERICSE [CHCHD3], the protein stability index by setting is: under setting [1], 4.14 ± 0.23; under setting [2], 4.1 ± 0.42.
